Experimental data taken from patent US20050272649A1, “Conjoint administration of morphogens and ACE inhibitors in treatment of chronic renal failure” (priority 2002, published 2005).
Several values for one entry are separate records, joined by “and”; a condition that tells them apart may be missing. Equal values may be shown once. Entries after “also recorded” stand apart in the source; their conditions may differ. Read-outs that look alike come from different tables or passages of the source.

What was measured:
[1] = system: streptozotocin diabetic Sprague-Dawley rats; assay type: in vivo; conditions: for Protein Ex (mg/day), urine protein excretion / kidney weight: at 32 weeks; for Mortality: deaths/animals; for GFR (ml/min/100 g bw): inulin clearance at 32 weeks; for prevalence of sclerotic glomeruli (glomerulosclerosis): DM vehicle 10.7±4.0%
Experimental: A long-term streptozotocin model of diabetic nephropathy was used to test and compare the therapeutic actions of BMP-7 with those of Enalapril. The study design was a treatment protocol beginning at 16 weeks when glomerular hypertrophy and proteinuria were established. The effects of therapy with BMP-7 (10, 30, or 100 μg/kg iv, biw) were compared to a maximal dose of Enalapril (20 mg/kg) and to a vehicle control. […] The GFR of 32 week diabetic Enalapril treated rats was 0.58±0.06 (not significant compared to vehicle treated and sham injected rats 0.55±0.02).
Animals: Female Sprague-Dawley rats 10 weeks of age weighing 190-220 g were used. Animals were allowed free access to standard rat chow and to tap water. Diabetes mellitus was induced by a single tail-vein injection of Streptozotocin (STZ 62 mg/kg of body weight, Sigma chemical company, St. Louis, Mo.) dissolved in normal saline at day 0. The diabetic state was confirmed 72 hours later by the determination of blood glucose concentration>300 mg/dl. From day 3, all the diabetic rats received daily subcutaneous injections of 1.0-7.0 u human recombinant long-acting insulin injection (Eli Lilly & Co., Indianapolis, Ind.) as required to maintain the blood glucose concentration between 300-500 mg/dl. Tail blood glucose levels were measured twice a week with an Accu—Chek™ Advantage meter (Roche Diagnostic Corporation, Indianapolis, Ind.). Body weights were taken once a week. Food and water intake were monitored daily.
Renal hypertrophy was well developed at 16 weeks prior to treatment with vehicle, BMP-7, or enalapril. […], animals were divided into 8 groups. Group 1 were 16 weeks of DM. Group 2 were 16 weeks normal controls. Group 3 DM animals were treated with tail-vein injection of vehicle twice a week for 16 weeks. Group 4, Group 5, and Group 6 were DM animals treated with tail-vein injections of BMP-7 100, 30, and 10 μg/kg body weight respectively twice a week for 16 weeks. Group 7 were treated with Enalapril 20 mg/kg through the drinking water for 16 weeks. […] Group 1 and Group 2 animals were sacrificed at 16 weeks. The others were sacrificed at 32 weeks. All treatments began at 16 weeks and continued through 32 weeks. Glomerular filtration rate (GFR), urine albumin excretion, kidney weight, glomerular area, mesangial matrix area, interstitial volume, monocyte and macrophage infiltration, thickness of glomerular basement membrane (GBM) and glomerulosclerosis were measured.
Renal Function: In all animals, glomerular filtration rate (GFR) was measured as the clearance of inulin. Rats were anesthetized with a Ketamine/Xylozine cocktail. A catheter was inserted into the femoral vein under a dissecting microscope for infusion. Another catheter was placed into the femoral artery for collecting blood samples. Urine was collected by bladder cannulation.
After the completion of surgery, a bolus of 2 ml/kg of 3% inulin (Cypros Pharmaceutical Corp, W. Carlsbad, Calif.) and 0.2% p-aminohippurate (PAH) in normal saline was infused as a priming load, followed by a sustaining infusion of the same solution at the rate of 8 ml/h·kg. Urine collection was initiated for three 20-minute collection periods after an hour of equilibration. An arterial blood sample was obtained during each clearance period. Plasma and urine were analyzed for inulin.
Urine volume was measured and urinary protein concentration was determined with a Bio-Rad protein assay.
Preparation of Kidneys: After the clearance studies, the rats were euthanized. Both kidneys were rapidly removed and placed in ice-cold phosphate buffered saline (PBS). Kidneys were weighed and then sliced on a cold glass plate. Two 2 mm coronal sections were immersed in Histochoice and in 10% buffered formalin. Kidney sections were embedded in paraffin and cut at 3 μm and stained with hematoxylin and eosin, Gomori's Trichrome and periodic acid Schiff (PAS).
Renal Morphology: The morphometric analysis was done in a blind manner. […]

[2] = system: rat remnant kidney model (5/6 NPX); test: rat partial (5/6) nephrectomy chronic renal failure injury model; assay type: in vivo
Excerpt: A rat partial (5/6) nephrectomy or rat remnant kidney model (RRKM) model was employed essentially as described (Vukicevic, et al. (1987) J. Bone Mineral Res. 2: 533, the entire content of which is incorporated herein by reference). Male Munich-Wistar rats (2-3 months old, weighing about 200-250 g) were subjected to renal mass ablation. Specifically, the right kidney is excised in conjunction with selective ligation of the left renal artery branches such that one third of the kidney remains perfused (5/6 NPX, see FIG. 12). Immediately following surgery, plasma creatinine and BUN levels rise dramatically due to the loss of renal mass and function. Over the next several weeks of this “acute” failure phase, plasma creatinine and BUN levels of surviving animals decline somewhat toward normal values but remain elevated. Renal function then appears to remain relatively constant or stable for a period of variable duration. After this point, the animals enter a period of chronic renal failure in which there is an essentially linear decline in renal function ending in death. For these reasons, animals are given 4 weeks of recovery prior to initiation of treatments.
Four weeks after nephrectomy, rats were divided into four treatment groups (see Table III), namely OP-1 (150 μg/kg body weight, 3×/week, by i.p. injection), Vehicle (20 mM arginine/150 mM NaCl, 0.1% Tween-80, pH 9.0, 1 ml/kg body weight, 3×/week, by i.p. injection), enalapril (100 mg/L in drinking water, 8-16 mg/kg body weight), and OP-1 with enalapril. For the first two groups (OP-1 and Vehicle), animals were sacrificed 14 weeks after nephrectomy. For the last two groups (enalapril, and OP-1 with enalapril), animals were sacrificed 26 weeks after nephrectomy. As surgical controls, rats were subjected to a “sham” operation in which the kidneys were decapsulated but no renal tissue was removed. Sham-treated animals were sacrificed 26 weeks after operation. None of the rats died in any group during this study. Systolic blood pressure, urine protein and/or glomerulosclerosis were monitored at intervals between 4 and 26 weeks post surgery.

[3] = BMP-7 10 μg/kg iv twice a week, weeks 16-32
[4] = BMP-7 10 μg/kg iv twice a week, weeks 16-32, listed as BMP
[5] = BMP-7 30 μg/kg iv twice a week, weeks 16-32
[6] = BMP-7 30 μg/kg iv twice a week, weeks 16-32, listed as BMP
[7] = BMP-7 100 μg/kg iv twice a week (high dose), weeks 16-32
[8] = BMP-7 100 μg/kg iv twice a week (high dose), weeks 16-32, listed as BMP
[9] = BMP-7 100 μg/kg iv twice a week, weeks 16-32
[10] = summary of the nephrectomy model

B1: OP-1: osteogenic protein-1 (OP-1, also known as BMP-7), morphogen of the OP/BMP family; OP-1 used interchangeably with sBMP-7 (protein)
chain: STGSKQRSQNRSKTPKNQEALRMANVAENSSSDQRQACKKHELYVSFRDLGWQDWIIAPEGYAAYYCEGECAFPLNSYMNATNHAIVQTLVHFINPETVPKPCCAPTQLNAISVLYFDDSSNVILKKYRNMVVRACGCH
renal BMP-7 expression (in situ hybridization) ([1]; 32 weeks): restored BMP-7 expression at high levels in the collecting duct; also recorded: restored BMP-7 expression in its normal pattern at high levels; also recorded: restored the normal distribution of BMP-7 expression
renal Wnt4 expression (in situ hybridization) ([1]; 32 weeks): without affecting Wnt4 expression; also recorded: do not affect Wnt4 expression; also recorded: had no effect on Wnt4 expression
Cause-Mortality unknown ([1]; BMP-7 10 μg/kg iv twice a week): 2/9
Protein Ex (mg/day), urine protein excretion [1, 3]: 59.46 ± 21.84 mg/day
kidney weight [1, 3]: 1.19 ± 0.03 g
Protein Ex (mg/day), urine protein excretion [1, 4]: 59.46 ± 21.84 mg/day
kidney weight [1, 4]: 1.19 ± 0.03 g
Mortality [1, 3]: 2/9
GFR (ml/min/100 g bw) [1, 3]: 0.59±0.07 ml/min/100 g bw
GFR (ml/min/100 g bw) [1, 4]: 0.59 ± 0.07 ml/min/100 g bw
prevalence of sclerotic glomeruli (glomerulosclerosis) ([1]; BMP-7 10 μg/kg, weeks 16-32): 4.1±1.4%
Cause-Mortality anesthesia ([1]; BMP-7 30 μg/kg iv twice a week): 1/9
Protein Ex (mg/day), urine protein excretion [1, 5]: 33.02 ± 9.11 mg/day
kidney weight [1, 5]: 1.19 ± 0.03 g
Protein Ex (mg/day), urine protein excretion [1, 6]: 33.02 ± 9.11 mg/day
kidney weight [1, 6]: 1.19 ± 0.03 g
Mortality [1, 5]: 1/9
GFR (ml/min/100 g bw) [1, 5]: 0.61±0.09 ml/min/100 g bw and 0.62±0.09 ml/min/100 g bw
GFR (ml/min/100 g bw) [1, 6]: 0.62 ± 0.09 ml/min/100 g bw
prevalence of sclerotic glomeruli (glomerulosclerosis) ([1]; BMP-7 30 μg/kg, weeks 16-32): 3.5±0.8%
Cause-Mortality hypoglycemia ([1]; BMP-7 100 μg/kg iv twice a week): 1/10
kidney weight [1, 7]: 1.10 ± 0.03 g
kidney weight [1, 8]: 1.10 ± 0.03 g
GFR (ml/min/100 g bw) [1, 7]: 0.7±0.08 ml/min/100 g bw
GFR (ml/min/100 g bw) [1, 8]: 0.70 ± 0.08 ml/min/100 g bw
Protein Ex (mg/day), urine protein excretion [1, 9]: 14.27 ± 3.50 mg/day
Protein Ex (mg/day), urine protein excretion ([1]; BMP-7 100 μg/kg iv twice a week, weeks 16-32, listed as BMP): 14.27 ± 3.50 mg/day
Mortality [1, 9]: 1/10
prevalence of sclerotic glomeruli (glomerulosclerosis) ([1]; BMP-7 100 μg/kg, weeks 16-32): 2.1±0.3%
cortical interstitial area / volume ([1]; BMP-7 high dose (100 μg/kg), weeks 16-32, DM vehicle 13.1±0.7%): 10.7±0.3%
monocyte/macrophage tubulointerstitial infiltration ([1]; ED-1 positive cells, 32 weeks): decreased the tubulointerstitial infiltration
mesangial matrix accumulation (in words) ([1]; PAS / Trichrome histology at 32 weeks): dose dependent reduction in the accumulation of mesangial matrix; also recorded: more effective than Enalapril; also recorded: greater mesangial matrix accumulation than the two higher doses
glomerular area / glomerular hypertrophy (in words) ([1]; treatment weeks 16-32): significantly decreased; also recorded: partially reversed glomerular hypertrophy; also recorded: equally effective
glomerulosclerosis (in words) ([1]; treatment weeks 16-32): prevented by BMP-7 therapy more effectively than by Enalapril; also recorded: prevented the development of glomerulosclerosis; also recorded: markedly reduced; also recorded: prevented the development of glomerular sclerosis; also recorded: more effective than Enalapril; also recorded: decreased glomerular sclerosis; also recorded: significantly better than that of Enalapril
interstitial volume (in words) ([1]; treatment weeks 16-32): significantly decreased; also recorded: reversed the increase in the expanded interstitial volume; also recorded: equally effective
systolic blood pressure (tail artery cuff) ([1]; treatment weeks 16-32): did not effect blood pressure until the final four weeks of therapy; also recorded: had no effect on blood pressure until after 28 weeks; also recorded: blood pressures were normalized; also recorded: did not affect blood pressure until late in the course of the study; also recorded: did not affect blood pressure until the last four weeks of therapy
urine protein excretion / proteinuria / albuminuria (in words) ([1]; treatment weeks 16-32): reversed to normal; also recorded: more effective in reversing proteinuria; also recorded: dose dependently eliminated proteinuria; also recorded: more effective than Enalapril
GFR (in words) ([1]; treatment weeks 16-32, versus vehicle-treated diabetic and normal rats): normal or greater; also recorded: restored glomerular filtration rate to normal; also recorded: more effective than Enalapril; also recorded: restored GFR to normal or slightly above normal
kidney weight / renal hypertrophy (in words) ([1]; treatment weeks 16-32, versus vehicle-treated diabetic rats): equal in partially reversing kidney hypertrophy; also recorded: partially reversed diabetic renal hypertrophy; also recorded: partially restored kidney weights towards normal; also recorded: equally effective
blood pressure level ([2]; OP-1 150 μg/kg i.p. 3×/week from 4 weeks after nephrectomy, to 14 weeks): did not dramatically lower the blood pressure level
glomerular filtration rate [2, 10]: improves glomerular filtration rate
glomerulosclerosis [2, 10]: reduces glomerulosclerosis
